Assay results taken from US20040191887A1 (WISCONSIN ALUMNI RESEARCH FOUNDATION, published 2004).

T1: botulinum neurotoxin E (Clostridium botulinum, UniProt Q00496 2-1251)
T1 sequence: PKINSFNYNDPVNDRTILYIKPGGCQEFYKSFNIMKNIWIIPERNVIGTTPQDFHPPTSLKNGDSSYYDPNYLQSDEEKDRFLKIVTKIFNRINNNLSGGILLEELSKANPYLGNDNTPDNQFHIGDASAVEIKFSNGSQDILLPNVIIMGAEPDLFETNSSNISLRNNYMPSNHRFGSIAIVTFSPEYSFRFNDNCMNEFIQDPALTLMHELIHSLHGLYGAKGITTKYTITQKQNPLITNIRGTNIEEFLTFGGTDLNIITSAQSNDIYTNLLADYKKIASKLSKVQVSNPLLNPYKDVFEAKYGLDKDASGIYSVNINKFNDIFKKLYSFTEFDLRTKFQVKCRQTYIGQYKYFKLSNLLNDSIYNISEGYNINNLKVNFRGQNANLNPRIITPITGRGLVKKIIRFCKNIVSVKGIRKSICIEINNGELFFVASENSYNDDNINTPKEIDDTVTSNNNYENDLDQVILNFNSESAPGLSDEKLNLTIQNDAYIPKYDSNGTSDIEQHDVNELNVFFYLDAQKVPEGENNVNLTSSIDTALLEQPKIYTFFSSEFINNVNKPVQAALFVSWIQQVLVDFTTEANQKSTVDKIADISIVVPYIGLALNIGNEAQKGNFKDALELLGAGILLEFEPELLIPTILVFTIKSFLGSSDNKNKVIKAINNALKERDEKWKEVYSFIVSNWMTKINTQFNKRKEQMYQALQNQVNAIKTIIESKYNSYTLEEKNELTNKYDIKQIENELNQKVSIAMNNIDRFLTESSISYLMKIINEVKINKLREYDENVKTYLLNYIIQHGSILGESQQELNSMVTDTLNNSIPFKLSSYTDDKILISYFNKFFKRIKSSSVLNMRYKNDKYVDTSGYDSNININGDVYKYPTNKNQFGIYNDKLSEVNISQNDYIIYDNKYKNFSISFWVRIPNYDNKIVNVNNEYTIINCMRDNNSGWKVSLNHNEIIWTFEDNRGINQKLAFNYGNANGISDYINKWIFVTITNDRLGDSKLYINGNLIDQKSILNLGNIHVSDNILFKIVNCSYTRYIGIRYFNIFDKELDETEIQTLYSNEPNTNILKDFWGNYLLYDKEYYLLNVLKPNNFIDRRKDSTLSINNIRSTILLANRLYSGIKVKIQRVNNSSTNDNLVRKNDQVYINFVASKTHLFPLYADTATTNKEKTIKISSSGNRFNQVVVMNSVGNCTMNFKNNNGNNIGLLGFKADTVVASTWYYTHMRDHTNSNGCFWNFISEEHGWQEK

B1: GST fusion of rat synaptotagmin IV lacking the C2B domain (receptor)
chain: MAPITTSRVEFDEIPTVVGIFSAFGLVFTVSLFAWICCQRRSAKSNKTPPYKFVHVLKGVDIYPENLSSKKKFGGDDKSEAKRKAALPNLSLHLDLEKRDLNGNFPKTNPKAGSSSDLENVTPKLFPETEKEAVSPESLKSSTSLTSEEKQEKLGTLFLSLEYNFEKKAFVVNIKEAQGLPAMDEQSMTSDPYIKMTILPEKKHKVKTRVLRKTLDPVFDETFTFYGVPYPHIQELSLHFTVLSFDRFSRDDVIGEVLVPLSGIELSDGKMLMTREIIKR
B2: GST fusion of mouse synaptotagmin II lacking the C2B domain (residues 1-267) (receptor)
chain: MRNIFKRNQEPNVAPATTTATMPLAPVAPADNSTESTGPGESQEDMFAKLKEKFFNEINKIPLPPWALIAMAVVAGLLLLTCCFCICKKCCCKKKKNKKEKGKGMKNAMNMKDMKGGQDDDDAETGLTEGEGEGEEEKEPENLGKLQFSLDYDFQANQLTVGVLQAAELPALDMGGTSDPYVKVFLLPDKKKKYETKVHRKTLNPAFNETFTFKVPYQELAGKTLVMAIYDFDRFSKHDIIGEVKVPMNTVDLGQPIEEWRDLQGGE
B3: GST fusion of rat synaptotagmin I lacking the C2B domain (receptor)
chain: MVSASHPEALAAPVTTVATLVPHNATEPASPGEGKEDAFSKLKQKFMNELHKIPLPPWALIAIAIVAVLLVVTCCFCVCKKCLFKKKNKKKGKEKGGKNAINMKDVKDLGKTMKDQALKDDDAETGLTDGEEKEEPKEEEKLGKLQYSLDYDFQNNQLLVGIIQAAELPALDMGGTSDPYVKVFLLPEKKKKFETKVHRKTLNPVFNEQFTFKVPYSELGGKTLVMAVYDFDRFSKHDIIGEFKVPMNTVDFGHVTEEWRDLQSA

Experiments:
[1] = molecular target: botulinum neurotoxin A (Clostridium botulinum, UniProt P0DPI0 2-1296); test: GST pull-down with and without gangliosides, immunoblot
Sequence of botulinum neurotoxin A (P0DPI0 2-1296 limits assumed): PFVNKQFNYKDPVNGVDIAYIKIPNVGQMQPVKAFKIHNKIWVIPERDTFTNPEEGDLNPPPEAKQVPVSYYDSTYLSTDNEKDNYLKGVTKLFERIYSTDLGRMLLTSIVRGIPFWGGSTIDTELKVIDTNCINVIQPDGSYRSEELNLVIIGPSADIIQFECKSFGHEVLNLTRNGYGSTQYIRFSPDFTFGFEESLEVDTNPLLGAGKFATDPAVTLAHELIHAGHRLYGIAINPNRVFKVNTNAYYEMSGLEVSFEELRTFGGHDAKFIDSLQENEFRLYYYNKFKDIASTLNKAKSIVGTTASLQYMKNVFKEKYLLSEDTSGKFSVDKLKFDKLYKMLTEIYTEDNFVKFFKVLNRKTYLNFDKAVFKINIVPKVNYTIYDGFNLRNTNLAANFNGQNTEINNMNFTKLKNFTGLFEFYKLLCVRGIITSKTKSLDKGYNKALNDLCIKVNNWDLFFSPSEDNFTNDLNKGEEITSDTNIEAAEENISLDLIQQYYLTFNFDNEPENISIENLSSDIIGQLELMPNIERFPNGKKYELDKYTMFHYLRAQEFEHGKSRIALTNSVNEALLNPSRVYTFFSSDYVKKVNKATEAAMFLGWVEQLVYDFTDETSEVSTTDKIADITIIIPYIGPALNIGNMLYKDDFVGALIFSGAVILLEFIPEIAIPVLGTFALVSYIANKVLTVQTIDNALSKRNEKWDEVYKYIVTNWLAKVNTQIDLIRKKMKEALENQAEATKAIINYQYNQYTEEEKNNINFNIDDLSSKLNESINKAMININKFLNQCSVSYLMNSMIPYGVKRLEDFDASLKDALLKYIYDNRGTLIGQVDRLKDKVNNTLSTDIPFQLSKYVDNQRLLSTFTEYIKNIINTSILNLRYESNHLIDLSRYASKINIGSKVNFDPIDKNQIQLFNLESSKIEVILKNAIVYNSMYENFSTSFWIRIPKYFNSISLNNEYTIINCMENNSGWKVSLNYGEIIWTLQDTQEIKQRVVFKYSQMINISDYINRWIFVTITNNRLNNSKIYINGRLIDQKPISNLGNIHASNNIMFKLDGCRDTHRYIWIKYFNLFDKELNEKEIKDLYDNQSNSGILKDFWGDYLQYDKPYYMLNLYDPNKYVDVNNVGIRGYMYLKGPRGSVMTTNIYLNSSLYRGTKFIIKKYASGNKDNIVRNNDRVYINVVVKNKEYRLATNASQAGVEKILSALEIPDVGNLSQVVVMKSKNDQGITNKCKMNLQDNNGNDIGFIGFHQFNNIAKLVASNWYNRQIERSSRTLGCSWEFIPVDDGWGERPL

[2] = molecular target: T1, botulinum neurotoxin E; test: as above

Row | Binder | binding result [1] | binding result [2]
1 | B1 | no binding (tested: 30 nM; also 300 nM (data not shown)) | no binding (tested: 30 nM; also 300 nM (data not shown))
2 | B2 | no binding (tested: 30 nM; also 300 nM (data not shown)) | no binding (tested: 30 nM; also 300 nM (data not shown))
3 | B3 | no binding (tested: 30 nM; also 300 nM (data not shown)) | no binding (tested: 30 nM; also 300 nM (data not shown))
